The text below walks through data of US20240076315A1, “KHL POLYPEPTIDE, AND USE THEREOF IN PREPARATION OF TABP-EIC CELL” (priority 2021, published 2024).

The test system of experiment [1] is PC3 cell lines with low PSMA expression. The experiment in a line: Immunofluorescence detection of KHL peptide (FITC marker) on PC3 cell line. The note with it: FIG. 2. It counts as binding. The protocol: (§1) Immunofluorescence detection was performed on KHL peptides in Lncap cell lines with high PSMA expression and PC3 cell lines with low PSMA expression, using FITC as the fluorescent marker. The fluorescence detection of KHL peptide and Lncap cell line is shown in FIG. 1, and the fluorescence detection of KHL peptide and PC3 cell line is shown in FIG. 2.

Experiment [2] addresses T1, cell surface antigen PSMA (Homo sapiens, UniProt Q04609).
T1 construct: endogenous in cells; host or cells: Lncap cells (PC3 cells as low-PSMA control)
The experiment in a line: Immunofluorescence detection of KHL peptide (FITC marker) on Lncap cell line. The format is binding. On the procedure: as §1

In experiment [3] the target is PSMA (Homo sapiens, UniProt Q04609). The experiment in a line: Phage display peptide library (Ph.D.-12) screening for peptide binding to PSMA. The note with it: three rounds of panning, Ph.D.-12 phage display library. The protocol:
The present disclosure uses the Ph.D.-12 phage display peptide library kit to screen peptide KHL that specifically binds to PSMA.
Random twelve peptide phage display library: 100 μL. 1.5×10^13 pfu/mL, stored in TBS solution containing 50% glycerol, complexity-2.7×10^9 transformants-28gIII sequencing primers: 5′-HOGATTGGGATTTGCTAACAAC-3′, 100 pmol, 1 pmol/μL-96 g III sequencing primer: 5′-HOCCTCATATAGTTAGCGTAGCGTAACG-3′, 100 pmol/1 pmol/μL; E. Coli ER2738 Host bacterium F′laclq Δ(lacZ) M15 proA+B+zzf:: Tn10 (TetR)/fhuA2 supE thi Δ(lac proAB) Δ(hsdMS mcrB) 5 (rk mk McrBC−): This strain is provided in the form of a bacterial culture containing 50% glycerol, non receptive cells, and stored at −70° C.; Streptavidin, freeze-dried powder 1.5 mg; Biotin: 10 mM 100 μL.
Depending on the number and types of target molecules that need to be simultaneously selected for library selection, the selection experiment is conducted on a single sterilized polystyrene culture dish, 12 or 24 well plates, and 96 well microplates. Each target molecule is coated with at least one plate (or well), and the amount given in the following method is the amount of the 60×15 mm culture dish, the content in parentheses is the amount of the plate, and the dosage of microplate is adjusted accordingly for other medium-sized wells. However, in each case, the number of added bacteriophages is the same: 1.5×10^11 virion. […]

No end group written: not given here.

T1 sequence (Q04609 whole entry): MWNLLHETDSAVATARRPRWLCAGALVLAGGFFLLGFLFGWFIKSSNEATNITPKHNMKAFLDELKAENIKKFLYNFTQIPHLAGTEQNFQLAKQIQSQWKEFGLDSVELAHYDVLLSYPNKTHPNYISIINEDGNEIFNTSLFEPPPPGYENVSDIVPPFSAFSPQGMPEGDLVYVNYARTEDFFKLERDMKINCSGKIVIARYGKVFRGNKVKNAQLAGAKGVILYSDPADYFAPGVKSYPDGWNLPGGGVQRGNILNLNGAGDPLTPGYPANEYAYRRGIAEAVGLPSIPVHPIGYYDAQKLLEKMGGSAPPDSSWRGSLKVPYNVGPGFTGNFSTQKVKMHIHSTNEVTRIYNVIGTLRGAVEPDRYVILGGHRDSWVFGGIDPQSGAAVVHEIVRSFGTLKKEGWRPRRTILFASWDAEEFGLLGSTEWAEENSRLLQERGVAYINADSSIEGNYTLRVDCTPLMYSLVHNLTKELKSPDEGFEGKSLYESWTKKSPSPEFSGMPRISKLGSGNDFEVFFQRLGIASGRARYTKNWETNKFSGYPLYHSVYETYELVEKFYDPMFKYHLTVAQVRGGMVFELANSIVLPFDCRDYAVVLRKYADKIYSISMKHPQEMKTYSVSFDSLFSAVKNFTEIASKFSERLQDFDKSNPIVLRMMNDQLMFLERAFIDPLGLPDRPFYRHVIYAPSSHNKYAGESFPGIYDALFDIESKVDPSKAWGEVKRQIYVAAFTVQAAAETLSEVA
Sequence of PSMA (Q04609 whole entry, species assumed): as the sequence (Q04609 whole entry) above

For the sequence “KHLHYHSSVRYG (also: FITC label, attachment site not given here) [FITC used as the fluorescent marker in immunofluorescence]”, the “cell surface fluorescence labeled by KHL” value in experiment [1] was “only staining of the nucleus”; in experiment [2] (Lncap cell lines with high PSMA expression, FITC, FIG. 1), “fluorescence displayed by KHL binding to the cell surface antigen PSMA”. In experiment [2] (Lncap (high PSMA) versus PC3 (low PSMA)), the “specificity of binding of KHL to the cell surface antigen PSMA” value is “high specificity”. For the same sequence, the “binding to PSMA found by peptide library screening” value in experiment [3] is on record as “specifically binding to PSMA”.
